# B1: GST-SHARPIN^WT [not stated] / recombinant RNF31 [not stated] (parent complex)
# chain 1: MAPPAGGAAAAASDLGSAAVLLAVHAAVRPLGAGPDAEAQLRRLQLSADPERPGRFRLELLGAGPGAVNLEWPLESVSYTIRGPTQHELQPPPGGPGTLSLHFLNPQEAQRWAVLVRGATVEGQNGSKSNSPPALGPEACPVSLPSPPEASTLKGPPPEADLPRSPGNLTEREELAGSLARAIAGGDEKGAAQVAAVLAQHRVALSVQLQEACFPPGPIRLQVTLEDAASAASAASSAHVALQVHPHCTVAALQEQVFSELGFPPAVQRWVIGRCLCVPERSLASYGVRQDGDPAFLYLLSAPREAPATGPSPQHPQKMDGELGRLFPPSLGLPPGPQPAASSLPSPLQPSWSCPSCTFINAPDRPGCEMCSTQRPCTWDPLAAAST
# chain 2: MPGEEEERAFLVAREELASALRRDSGQAFSLEQLRPLLASSLPLAARYLQLDAARLVRCNAHGEPRNYLNTLSTALNILEKYGRNLLSPQRPRYWRGVKFNNPVFRSTVDAVQGGRDVLRLYGYTEEQPDGLSFPEGQEEPDEHQVATVTLEVLLLRTELSLLLQNTHPRQQALEQLLEDKVEDDMLQLSEFDPLLREIAPGPLTTPSVPGSTPGPCFLCGSAPGTLHCPSCKQALCPACDHLFHGHPSRAHHLRQTLPGVLQGTHLSPSLPASAQPRPQSTSLLALGDSSLSSPNPASAHLPWHCAACAMLNEPWAVLCVACDRPRGCKGLGLGTEGPQGTGGLEPDLARGRWACQSCTFENEAAAVLCSICERPRLAQPPSLVVDSRDAGICLQPLQQGDALLASAQSQVWYCIHCTFCNSSPGWVCVMCNRTSSPIPAQHAPRPYASSLEKGPPKPGPPRRLSAPLPSSCGDPEKQRQDKMREEGLQLVSMIREGEAAGACPEEIFSALQYSGTEVPLQWLRSELPYVLEMVAELAGQQDPGLGAFSCQEARRAWLDRHGNLDEAVEECVRTRRRKVQELQSLGFGPEEGSLQALFQHGGDVSRALTELQRQRLEPFRQRLWDSGPEPTPSWDGPDKQSLVRRLLAVYALPSWGRAELALSLLQETPRNYELGDVVEAVRHSQDRAFLRRLLAQECAVCGWALPHNRMQALTSCECTICPDCFRQHFTIALKEKHITDMVCPACGRPDLTDDTQLLSYFSTLDIQLRESLEPDAYALFHKKLTEGVLMRDPKFLWCAQCSFGFIYEREQLEATCPQCHQTFCVRCKRQWEEQHRGRSCEDFQNWKRMNDPEYQAQGLAMYLQENGIDCPKCKFSYALARGGCMHFHCTQCRHQFCSGCYNAFYAKNKCPEPNCRVKKSLHGHHPRDCLFYLRDWTALRLQKLLQDNNVMFNTEPPAGARAVPGGGCRVIEQKEVPNGLRDEACGKETPAGYAGLCQAHYKEYLVSLINAHSLDPATLYEVEELETATERYLHVRPQPLAGEDPPAYQARLLQKLTEEVPLGQSIPRRRK
# Variants of: B1
# Assay: ELISA-based binding assay; n = 3; parent: 1; read off a plot
row,response [Abs 450nm],Variant
1,~0.45,chain 1 I272A
2,~0.69,chain 1 V267A
3,~0.49,chain 1 L276A
4,~0.7,"chain 1 L261A, chain 1 F263A"

# Reference: article PMC4658161, “Mutually Exclusive Roles of SHARPIN in Integrin Inactivation and NF-κB Signaling” (PLoS ONE, 2015)
